Substrate in series [1]: CC(Cc1ccc(O)cc1)NCC(O)c1cc(O)cc(O)c1
The series can be described thus: cells, lysate or membranes named. The conditions noted are these: HEK293, 2 min, Michaelis–Menten fit, pH 7.4.

Substrate in series [2]: CCCC[N+]1(C)[C@@H]2C[C@@H](OC(=O)[C@H](CO)c3ccccc3)C[C@H]1[C@@H]1O[C@@H]12
The series can be described thus: Uptake in HEK293 cells stably overexpressing human OCT2. In kind it is in vitro ADME. The conditions noted are these: other: OCT2-mediated uptake, HEK293, 2 min, Michaelis–Menten fit; pH 7.4.

Substrate in series [3]: O=C(O[C@H]1C[C@H]2CC[C@@H](C1)[N+]21CCCC1)C(O)(c1ccccc1)c1ccccc1
The description is as above. The conditions noted are these: other: OCT2-mediated uptake, HEK293, 2 min, Michaelis–Menten fit; pH 7.4. In kind it is in vitro ADME.

Substrate in series [4]: CCCC[N+]1(C)[C@@H]2C[C@@H](OC(=O)[C@H](CO)c3ccccc3)C[C@H]1[C@@H]1O[C@@H]12
Briefly: Uptake in HEK293 cells stably overexpressing mouse OCT1. In kind it is in vitro ADME. Conditions: other: OCT1-mediated uptake, HEK293, 2 min, Michaelis–Menten fit; pH 7.4.

Substrate in series [5]: CN(C)C(=N)N=C(N)N
The series is described as above. In kind it is in vitro ADME. Conditions: other: OCT1-mediated uptake, HEK293, 2 min, Michaelis–Menten fit; pH 7.4.

Substrate in series [6]: O=C(O[C@H]1C[C@H]2CC[C@@H](C1)[N+]21CCCC1)C(O)(c1ccccc1)c1ccccc1
The description is as above. In kind it is in vitro ADME. Conditions: other: OCT1-mediated uptake, HEK293, 2 min, Michaelis–Menten fit; pH 7.4.

Substrate in series [7]: CCCC[N+]1(C)[C@@H]2C[C@@H](OC(=O)[C@H](CO)c3ccccc3)C[C@H]1[C@@H]1O[C@@H]12
The series can be described thus: Uptake in HEK293 cells stably overexpressing human OCT1. In kind it is in vitro ADME. The conditions noted are these: other: OCT1-mediated uptake, HEK293, 2 min, Michaelis–Menten fit; pH 7.4.

Substrate in series [8]: O=C(O[C@H]1C[C@H]2CC[C@@H](C1)[N+]21CCCC1)C(O)(c1ccccc1)c1ccccc1
The series is described as above. In kind it is in vitro ADME. Conditions: other: OCT1-mediated uptake, HEK293, 2 min, Michaelis–Menten fit; pH 7.4.

What is called Km is the substrate concentration at which the rate is half of its maximum. The Vmax is the rate approached at saturating substrate.

B1: human OCT2 (Homo sapiens) (protein)
chain: MPTTVDDVLEHGGEFHFFQKQMFFLLALLSATFAPIYVGIVFLGFTPDHRCRSPGVAELSLRCGWSPAEELNYTVPGPGPAGEASPRQCRRYEVDWNQSTFDCVDPLASLDTNRSRLPLGPCRDGWVYETPGSSIVTEFNLVCANSWMLDLFQSSVNVGFFIGSMSIGYIADRFGRKLCLLTTVLINAAAGVLMAISPTYTWMLIFRLIQGLVSKAGWLIGYILITEFVGRRYRRTVGIFYQVAYTVGLLVLAGVAYALPHWRWLQFTVSLPNFFFLLYYWCIPESPRWLISQNKNAEAMRIIKHIAKKNGKSLPASLQRLRLEEETGKKLNPSFLDLVRTPQIRKHTMILMYNWFTSSVLYQGLIMHMGLAGDNIYLDFFYSALVEFPAAFMIILTIDRIGRRYPWAASNMVAGAACLASVFIPGDLQWLKIIISCLGRMGITMAYEIVCLVNAELYPTFIRNLGVHICSSMCDIGGIITPFLVYRLTNIWLELPLMVFGVLGLVAGGLVLLLPETKGKALPETIEEAENMQRPRKNKEKMIYLQVQKLDIPLN
notes: expressed in transfected cells; host or cells: HEK293 (Flp-In system)
As for B1, the results for the Michaelis-Menten constant (Km) in series [1] (other: OCT2-mediated uptake), in series [2] and in series [3] were 8.81 ± 0.55 µM, 7.62 ± 0.85 µM and 0.49 ± 0.15 µM, respectively. Moreover, the maximum rate (Vmax) in series [2] was 0.000616 µmol/min/mg; in series [3], 0.000119 µmol/min/mg. In addition, the figures for the Vmax/Km in series [2] and in series [3] were 81.6 µL/min/mg and 278 µL/min/mg, respectively.

B2: mouse OCT1 (Mus musculus) (protein)
chain: MPTVDDVLEHVGEFGWFQKQAFLLLCLISASLAPIYVGIVFLGFTPDHHCRSPGVAELSQRCGWSPAEELNYTVPGLGSAGEASFLSQCMKYEVDWNQSTLDCVDPLSSLAANRSHLPLSPCEHGWVYDTPGSSIVTEFNLVCGDAWKVDLFQSCVNLGFFLGSLVVGYIADRFGRKLCLLVTTLVTSLSGVLTAVAPDYTSMLLFRLLQGMVSKGSWVSGYTLITEFVGSGYRRTTAILYQVAFTVGLVGLAGVAYAIPDWRWLQLAVSLPTFLFLLYYWFVPESPRWLLSQKRTTQAVRIMEQIAQKNRKVPPADLKMMCLEEDASERRSPSFADLFRTPSLRKHTLILMYLWFSCAVLYQGLIMHVGATGANLYLDFFYSSLVEFPAAFIILVTIDRIGRIYPIAASNLVAGAACLLMIFIPHELHWLNVTLACLGRMGATIVLQMVCLVNAELYPTFIRNLGMMVCSALCDLGGIFTPFMVFRLMEVWQALPLILFGVLGLSAGAVTLLLPETKGVALPETIEEAENLGRRKSKAKENTIYLQVQTGKSPHT
notes: as for B1
In the case of B2, the Michaelis-Menten constant (Km) in series [1] (other: OCT1-mediated uptake) amounted to 10.7 ± 1.09 µM; in series [4], 6.60 ± 1.13 µM; in series [5], 298 ± 46.9 µM; in series [6], 1.92 ± 0.85 µM. Further, the maximal velocity (Vmax) in series [4] amounted to 0.000778 µmol/min/mg; in series [5] it was 0.0109 ± 0.00125 µmol/min/mg; in series [6] it was 0.000255 µmol/min/mg. Also, the values for the Vmax/Km in series [4], in series [5] and in series [6] were 131 µL/min/mg, 38.7 µL/min/mg and 180 µL/min/mg, respectively.

B3: human OCT1 (Homo sapiens) (protein)
chain: MPTVDDILEQVGESGWFQKQAFLILCLLSAAFAPICVGIVFLGFTPDHHCQSPGVAELSQRCGWSPAEELNYTVPGLGPAGEAFLGQCRRYEVDWNQSALSCVDPLASLATNRSHLPLGPCQDGWVYDTPGSSIVTEFNLVCADSWKLDLFQSCLNAGFLFGSLGVGYFADRFGRKLCLLGTVLVNAVSGVLMAFSPNYMSMLLFRLLQGLVSKGNWMAGYTLITEFVGSGSRRTVAIMYQMAFTVGLVALTGLAYALPHWRWLQLAVSLPTFLFLLYYWCVPESPRWLLSQKRNTEAIKIMDHIAQKNGKLPPADLKMLSLEEDVTEKLSPSFADLFRTPRLRKRTFILMYLWFTDSVLYQGLILHMGATSGNLYLDFLYSALVEIPGAFIALITIDRVGRIYPMAMSNLLAGAACLVMIFISPDLHWLNIIIMCVGRMGITIAIQMICLVNAELYPTFVRNLGVMVCSSLCDIGGIITPFIVFRLREVWQALPLILFAVLGLLAAGVTLLLPETKGVALPETMKDAENLGRKAKPKENTIYLKVQTSEPSGT
notes: as for B1
For the protein B3, the Km in series [1] (other: OCT1-mediated uptake) is reported as 1.19 ± 0.09 µM; in series [7], 15.0 ± 1.67 µM; in series [8] it was 13.3 ± 1.58 µM. Further, the maximum rate (Vmax) in series [7] worked out at 0.00125 µmol/min/mg; in series [8], 0.0015 µmol/min/mg. In addition, the Vmax/Km in series [7] turned out to be 84.4 µL/min/mg; in series [8], 117 µL/min/mg.

Source of the values: publication PMC9102066, “Cloning and Functional Characterization of Dog OCT1 and OCT2: Another Step in Exploring Species Differences in Organic Cation Transporters” (International Journal of Molecular Sciences, 2022).
